Reference: PMC8443706, “Functionally diverse heteromeric traps for ligands of the transforming growth factor-β superfamily” (Scientific Reports, 2021)
Each block holds one binder with its values, some of them ahead of it.

Columns and labels:
activin A [1] = biological target: T1, activin A (human, UniProt P08476 311-426); test: cell-based or functional assay
T1 sequence (looked up): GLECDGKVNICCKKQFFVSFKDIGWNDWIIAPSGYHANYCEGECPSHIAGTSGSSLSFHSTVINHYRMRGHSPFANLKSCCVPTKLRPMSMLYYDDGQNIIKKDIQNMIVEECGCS

GDF11 [2] = biological target: T2, GDF11 (human, UniProt O95390 299-407); test: SPR; Biacore 8K, 37 °C; Fc-fusion receptor dimers captured by anti-human Fc antibody on a CM5 chip (100-150 RU); ligands injected in two-fold dilution series (300 s association, 600 s dissociation); HBS-EP+ supplemented with 350 mM NaCl and 0.5 mg/mL BSA; 1:1 Langmuir model with a term for mass transport; conditions: both partners purified
T2 construct: source: generated in house
T2 sequence (looked up): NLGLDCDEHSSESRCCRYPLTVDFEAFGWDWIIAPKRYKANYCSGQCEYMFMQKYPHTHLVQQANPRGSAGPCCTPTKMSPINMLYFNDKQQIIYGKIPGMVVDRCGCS

activin A [3] = biological target: T1, activin A; test: as above; conditions: both partners purified
[4] = biological target: T3, growth differentiation factor 8 (GDF8, or myostatin) (human, UniProt O14793 267-375); test: cell-based or functional assay
T3 sequence (looked up): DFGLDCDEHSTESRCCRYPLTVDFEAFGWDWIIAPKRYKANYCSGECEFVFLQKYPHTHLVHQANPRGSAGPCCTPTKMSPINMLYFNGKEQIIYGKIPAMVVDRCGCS

GDF11 [5] = biological target: T2, GDF11; test: cell-based or functional assay
BMP9 = biological target: T4, BMP9 (human, UniProt Q9UK05 320-429); test: cell-based or functional assay
T4 sequence (looked up): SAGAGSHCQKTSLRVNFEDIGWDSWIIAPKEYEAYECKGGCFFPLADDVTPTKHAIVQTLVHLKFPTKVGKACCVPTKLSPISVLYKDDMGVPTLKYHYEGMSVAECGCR

BMP10 = biological target: T5, BMP10 (human, UniProt O95393 317-424); test: cell-based or functional assay
T5 sequence (looked up): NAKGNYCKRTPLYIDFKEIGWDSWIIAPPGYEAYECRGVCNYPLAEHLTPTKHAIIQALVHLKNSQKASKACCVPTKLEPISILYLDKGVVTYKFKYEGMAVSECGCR

activin B = biological target: T6, activin B (human, UniProt P09529 293-407); test: cell-based or functional assay
T6 sequence (looked up): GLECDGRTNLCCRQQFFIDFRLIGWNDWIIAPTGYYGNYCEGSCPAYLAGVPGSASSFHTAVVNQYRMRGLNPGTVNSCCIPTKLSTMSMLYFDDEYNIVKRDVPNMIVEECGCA

BMP7 = biological target: T7, BMP7 (human, UniProt P18075 293-431); test: SPR; same experiment as a1 (Biacore 8K, 37 °C, receptor dimers captured by anti-human Fc, HBS-EP+ with 350 mM NaCl added and 0.5 mg/mL BSA) but fitted with a bivalent analyte model (bold cells of Table 1); the first binding step is the one considered; conditions: both partners purified
T7 construct: source: bought: R&D Systems
T7 sequence (looked up): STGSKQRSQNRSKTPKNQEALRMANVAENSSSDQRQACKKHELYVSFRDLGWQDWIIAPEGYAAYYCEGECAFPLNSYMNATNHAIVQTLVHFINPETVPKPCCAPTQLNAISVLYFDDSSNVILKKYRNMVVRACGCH

BMP6 = biological target: T8, BMP6 (human, UniProt P22004 375-513); test: SPR; Biacore 8K, 37 °C; Fc-fusion receptor dimers captured by anti-human Fc antibody on a CM5 chip (100-150 RU); ligands injected in two-fold dilution series (300 s association, 600 s dissociation); HBS-EP+ supplemented with 350 mM NaCl and 0.5 mg/mL BSA; 1:1 Langmuir model with a term for mass transport; conditions: both partners purified
T8 construct: source: bought: R&D Systems
T8 sequence (looked up): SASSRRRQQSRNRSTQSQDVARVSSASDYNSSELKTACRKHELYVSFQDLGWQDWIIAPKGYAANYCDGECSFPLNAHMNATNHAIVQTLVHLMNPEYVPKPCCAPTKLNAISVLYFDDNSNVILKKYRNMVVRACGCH

B3: IIB-Fc:ALK3-Fc heterodimer (human ActRIIB ECD-Fc paired with human ALK3 ECD-Fc) (Fc fusion)
chain 1: SGRGEAETRECIYYNANWELERTNQSGLERCEGEQDKRLHCYASWRNSSGTIELVKKGCWLDDFNCYDRQECVATEENPQVYFCCCEGNFCNERFTHLPEAGGPEVTYEPPPTAPT
chain 2: QNLDSMLHGTGMKSDSDQKKSENGVTLAPEDTLPFLKCYCSGHCPDDAINNTCITNGHCFAIIEEDDQGETTLASGCMKYEGSDFQCKDSPKAQLRRTIECCRTNLCNQYLQPTLPPVVIGPFFDGSIR
IC50 of the trap for inhibition of ligand-induced SMAD2/3 (CAGA12) luciferase reporter signalling in A204 cells (ligand with the cells' receptors) [4]: 10.8 nM
IC50 of the trap for inhibition of ligand-induced SMAD2/3 (CAGA12) luciferase reporter signalling in A204 cells (ligand with the cells' receptors) (GDF11 [5]): 2.42 nM
IC50 of the trap for inhibition of ligand-induced SMAD1/5/8 (BRE) luciferase reporter signalling in T98G cells (ligand with the cells' receptors) (BMP9): 23.4 nM
IC50 of the trap for inhibition of ligand-induced SMAD1/5/8 (BRE) luciferase reporter signalling in T98G cells (ligand with the cells' receptors) (BMP10): 1.1 nM
IC50 of the trap for inhibition of ligand-induced SMAD2/3 (CAGA12) luciferase reporter signalling in A204 cells (ligand with the cells' receptors) (activin A [1]): 2.62 nM
IC50 of the trap for inhibition of ligand-induced SMAD2/3 (CAGA12) luciferase reporter signalling in A204 cells (ligand with the cells' receptors) (activin B): 1.65 nM

B4: IIB-Fc:ALK4-Fc heterodimer (human ActRIIB ECD-Fc paired with human ALK4 ECD-Fc) (Fc fusion)
chain 1: B3 chain 1
chain 2: SGPRGVQALLCACTSCLQANYTCETDGACMVSIFNLDGMEHHVRTCIPKVELVPAGKPFYCLSSEDLRNTHCCYTDYCNRIDLRVPSGHLKEPEHPSMWGPVE
IC50 of the trap for inhibition of ligand-induced SMAD2/3 (CAGA12) luciferase reporter signalling in A204 cells (ligand with the cells' receptors) [4]: 2.04 nM
IC50 of the trap for inhibition of ligand-induced SMAD2/3 (CAGA12) luciferase reporter signalling in A204 cells (ligand with the cells' receptors) (GDF11 [5]): 0.34 nM
IC50 of the trap for inhibition of ligand-induced SMAD1/5/8 (BRE) luciferase reporter signalling in T98G cells (ligand with the cells' receptors) (BMP9): 8.47 nM
IC50 of the trap for inhibition of ligand-induced SMAD1/5/8 (BRE) luciferase reporter signalling in T98G cells (ligand with the cells' receptors) (BMP10): 0.7 nM
IC50 of the trap for inhibition of ligand-induced SMAD2/3 (CAGA12) luciferase reporter signalling in A204 cells (ligand with the cells' receptors) (activin A [1]): 0.19 nM
IC50 of the trap for inhibition of ligand-induced SMAD2/3 (CAGA12) luciferase reporter signalling in A204 cells (ligand with the cells' receptors) (activin B): 0.16 nM

Continued, values first:

IC50 of the trap for inhibition of ligand-induced SMAD2/3 (CAGA12) luciferase reporter signalling in A204 cells (ligand with the cells' receptors) (activin A [1]): > 100 nM
Kd (GDF11 [2]): > 10 nM
koff (GDF11 [2]): > 0.01 s⁻¹
kon (GDF11 [2]): 500000 M⁻¹ s⁻¹
Kd (activin A [3]): > 10 nM
koff (activin A [3]): > 0.01 s⁻¹
kon (activin A [3]): 200000 M⁻¹ s⁻¹
B1: ALK4-Fc:ALK4-Fc homodimer (R&D Systems Cat #808-AR-100) (Fc fusion, human, UniProt P36896-1 24-126, looked up)
chain: B4 chain 2
notes: activin receptor-like kinase 4 (ALK4) extracellular domain, human; Bought product; source: bought: R&D Systems (Cat #808-AR-100); not shown: Fc (human)

IC50 of the trap for inhibition of ligand-induced SMAD2/3 (CAGA12) luciferase reporter signalling in A204 cells (ligand with the cells' receptors) [4]: 0.76 nM
IC50 of the trap for inhibition of ligand-induced SMAD2/3 (CAGA12) luciferase reporter signalling in A204 cells (ligand with the cells' receptors) (GDF11 [5]): 0.09 nM
IC50 of the trap for inhibition of ligand-induced SMAD1/5/8 (BRE) luciferase reporter signalling in T98G cells (ligand with the cells' receptors) (BMP9): 0.57 nM
IC50 of the trap for inhibition of ligand-induced SMAD1/5/8 (BRE) luciferase reporter signalling in T98G cells (ligand with the cells' receptors) (BMP10): 0.03 nM
IC50 of the trap for inhibition of ligand-induced SMAD2/3 (CAGA12) luciferase reporter signalling in A204 cells (ligand with the cells' receptors) (activin A [1]): 0.11 nM
IC50 of the trap for inhibition of ligand-induced SMAD2/3 (CAGA12) luciferase reporter signalling in A204 cells (ligand with the cells' receptors) (activin B): 0.06 nM
Kd (BMP7): > 10 nM
koff (BMP7): > 0.01 s⁻¹
kon (BMP7): 800000 M⁻¹ s⁻¹
Kd (BMP6): 0.348 nM
koff (BMP6): 0.00273 s⁻¹
kon (BMP6): 7.8e+06 M⁻¹ s⁻¹
B2: IIB-Fc:IIB-Fc homodimer (human ActRIIB ECD fused to human IgG1 Fc) (Fc fusion, UniProt Q13705-1 19-134, looked up)
chain: B3 chain 1
notes: activin receptor type IIB (ActRIIB) extracellular domain, human, aa 19-134 of NP_001097.2; Chains linked by disulfide bonds between the Fc domains; a form with murine IgG2a Fc was used only in mice; also called ActRIIB-Fc homodimer; ActRIIB-Fc; not shown: Fc (human IgG1), C-terminal, kept

IC50 of the trap for inhibition of ligand-induced SMAD2/3 (CAGA12) luciferase reporter signalling in A204 cells (ligand with the cells' receptors) [4]: 9.15 nM
IC50 of the trap for inhibition of ligand-induced SMAD2/3 (CAGA12) luciferase reporter signalling in A204 cells (ligand with the cells' receptors) (GDF11 [5]): 2.34 nM
IC50 of the trap for inhibition of ligand-induced SMAD1/5/8 (BRE) luciferase reporter signalling in T98G cells (ligand with the cells' receptors) (BMP9): 31 nM
IC50 of the trap for inhibition of ligand-induced SMAD1/5/8 (BRE) luciferase reporter signalling in T98G cells (ligand with the cells' receptors) (BMP10): 2.01 nM
IC50 of the trap for inhibition of ligand-induced SMAD2/3 (CAGA12) luciferase reporter signalling in A204 cells (ligand with the cells' receptors) (activin A [1]): 2.86 nM
IC50 of the trap for inhibition of ligand-induced SMAD2/3 (CAGA12) luciferase reporter signalling in A204 cells (ligand with the cells' receptors) (activin B): 0.26 nM
B5: IIB-Fc:ALK7-Fc heterodimer (human ActRIIB ECD-Fc paired with human ALK7 ECD-Fc) (Fc fusion)
chain 1: B3 chain 1
chain 2: GLKCVCLLCDSSNFTCQTEGACWASVMLTNGKEQVIKSCVSLPELNAQVFCHSSNNVTKTECCFTDFCNNITLHLPTASPNAPKLGPME
